Target: the molecule itself
Assay: crystal structure

B1: Histidine triad nucleotide-binding protein (HINT) from Candida albicans (enzyme, UniProt Q59WG0 1-152, looked up)
chain: MASHASCIFCKIIKGEIPSFKLIETAKTYSFLDIQPIAEAHVLIIPKHHGAKLHNIPDDYLSDILPVVKKLTKVLKLDENNTPEGEGYNVLQNNGRIAHQVVDHVHFHLIPKKDEATGLGVGWPAEATDFDKLGKLHEKLKEELAKVDNEKL
- stoichiometry N: 2

Source: paper PMC6354057 (Molecules and Cells, 2019)
